The supplement of paper PMC7125110
± gives the standard error. Fewer inactive variants are shown than the library holds.

B1: glmS ribozyme (parent)
chain: AUAAAAGCGCCAGAACUACAGAAAUGUAGUUGACGAGGAGGAGGUUUAUCGAAUUUUCGGCGGAUGCCUCCAAA

Variants of: B1
Assay: self-cleavage kobs at 10000 uM GlcN6P; higher = faster cleavage; RNA array
Conditions: with glucosamine-6-phosphate
In short: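 On sequenced MiSeq chips, barcoded ribozyme variants were made in situ by E. coli RNA polymerase and followed at 37 °C through a hybridised Cy3 probe. Glucosamine-6-phosphate was flowed in at 40 μM to 10 mM in HEPES/KCl/Mg(OAc)2 buffer. Exponential fits to normalised per-tile medians gave kobs, and weighted Michaelis–Menten fits gave kcat and KM.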

Variant	self-cleavage kobs at 10000 uM GlcN6P [s⁻¹]
AUAAAAGCGCCAAAACUACAGAAAUGUAGUUGACGAGAAGGAGGUUUAUCGAAUUUUCGGCGGGUGCCUCCAAA [G13A G38A A64G]	< 1e-05
AUAAAAGCGCCAAAACUACAGAAAUGUAGUUGAGGAGGAGGAGGUUUAUCGCAUUUUCGGCGGAUGCCUCCAAA [G13A C34G A52C]	< 1e-05
AUAAACGUCCCAGAACUACAGAAAUGUAGUUGACGAGGAGGAGGUUUAUCGAAUUUUCGGCGGAUGUCUCCAAA [A6C C8U G9C C67U]	< 1e-05
AUAAAAGCGCCAGAACUACAGAAAUGUAGUUGACGAGGAGGAGCUUUAUCGAAUUGUCGGCGGAUGCCUCCAAA [G44C U56G]	5.6e-05 ± 1.2e-05
AUAAAAGCGCCAGAACUACAGAAAUGUAGUGGACGAGGAGGAGGUUUAUCGAAUGUUUGGCGGAUGCCUCCAAA [U31G U55G C58U]	7.92e-05 ± 1.7e-05
AUAAAAGCGCCAGAACUACAGAAAUGUAGUUGACGAGGAGGAGGUUUAUCGGAUUUUCGGCGGAGGCCUCGAAA [A52G U65G C71G]	2.3e-05 ± 1.1e-05
AUAAAAGCGCCAGAACUACAGAAAUGUAUUUGACGAGGAGGAGGUGUAUCGAAUUUUCGGGGGAUACCUCCAAA [G29U U46G C61G G66A]	< 1e-05
AUAAAAGCGCCAGUACUACAGAAAUGUAGUUGACGAAGAGGACGUUUAUCGAAUUUUCCGCGGAUGCCUCCAAA [A14U G37A G43C G59C]	< 1e-05
AUAAAAGCGCCAGAACUACAGAAAUGUAGGUGCCGAGGAGGAGGUUUCUCGAAUUUUCGGCGGAUGCCUCUAAA [U30G A33C A48C C71U]	< 1e-05
AUAAAAACGCCAGAACUACAGAAAUGUAGUUGACGAGGACGUUGUUUAUCGAAUUUCCGGCGGAUGCCUCCAAA [G7A G40C A42U G43U U57C]	< 1e-05
AUAAAAGCGCCCGAACUACAGAAAUGUAGUUGACGAGGAGGAGGUUUAUCGAAUUGUCGGCGGAUGCCUGCAAA [A12C U56G C70G]	5.35e-05 ± 1.3e-05
AUAAAAGCGCCAGUACUACAGAAAUGUAGUUGACGAGGCGGAGGUUUAUCGAAUUUUCGGCGGAUUCCUCCAAA [A14U A39C G66U]	0.000116 ± 2.2e-05
AUAAAAGCAGCAGAACUACAGAAAUGUAGUUGACGAGGAGGAGGUUUAUCGAAUUUUCGGCGGAUGCCGCCAAA [G9A C10G U69G]	0.000596 ± 0.00021
AUAAAUGCGCCAGAACUACAGAAAUGUAGUUGACGAGGAGGAGGUUUAUCGAAUAUUCGGCGGAUGCCUUCAAA [A6U U55A C70U]	0.000254 ± 6.5e-05
AUAAAAGCGCCUGAACUACAGAAAUGUAGUUGACGAGGAGGAGGUUUAUCGAACUUUCUGCGGCUGCCUCCAAA [A12U U54C G59U A64C]	< 1e-05
AUAAAAGCGCCAGAACUACAGAAAUGUAGAUUACGAGGAGGAGGUUUAUCGAAUUUUCGGCGGAUGACUCCAAA [U30A G32U C67A]	0.000213 ± 6e-05
AUAAAAGCGCCAGAAUUACAGAAAUGUAGUUGACGAGGAGGAGGUUUAUCGAAUGUUCGGCGGAUGCGUCCAAA [C16U U55G C68G]	5.93e-05 ± 1.5e-05
AUAAAAGCGCCAGAUCUACAGAAAUGUAGUUGACGAAGAGGAGGUUAAUCGAAUUUUCGGCGGAUGGCUGCAAA [A15U G37A U47A C67G C70G]	< 1e-05
AUAAAAGCGCCAGAACUACAGAAAUGUAGUUGACGAGGAGGAGGUUUAUCGAAUUAUAGGCGGAUGGCUCCAAA [U56A C58A C67G]	7.18e-05 ± 2.4e-05

Variant	self-cleavage kobs at 10000 uM GlcN6P [s⁻¹]
AUAAAAGCGCCAGAACUACAGAAAUGUAGUUGACCAGGAGGAGGGUAAUCGAAUUUUCGGCGGACGCCUCCAAA [G35C U45G U47A U65C]	< 1e-05
AUAAAAGCGCCAGAACUACAGAAAUGUAGUUGCCGAGGAGGAGGUUUAUCGAAUUUUCGGCGGAUGCGUCCAAA [A33C C68G]	< 1e-05
AUAAAAGCGCCAGAACUACAGAAAUGUACUUGACGAGGAGGAGGUUUAUGGAAUUUUCGGGGGAUGCCUCUAAA [G29C C50G C61G C71U]	8.93e-05 ± 2.1e-05
AUAAAAGCGCCAGGACUACAGAAAUGUAGUUGACGAGGACUAGGUUUAUCGAAUUUUCGGCGGAUGCCUCCAAA [A14G G40C G41U]	0.000186 ± 4e-05
AUAAAAGCGCCUGAACUACAGAAAUGUAGUUGACGAGGAGGAGGUUUCCAGAAUUUUCGGCGGAUGCUUCCAAA [A12U A48C U49C C50A C68U]	< 1e-05
AUAAAAGCUCCAGAUCUACAGAAAUGUAGUUGACGAUGAGGAGGUUUAUCGAAUUUUCGGCGGAUGCCUCCAAA [G9U A15U G37U]	< 1e-05
AUAAAAGCGCCAGAACUACAGAAAUGUAGUUGUCGAGGAGGAGGUUUAUCGAAUUUUGGGCGGAUGUAUCCAAA [A33U C58G C67U C68A]	5.11e-05 ± 1.6e-05
AUAAAAGUGCCAGAACUACAGAAAUGUAUUUCACCUGGAGGAGGUUUAUAGUAUUUUCGGCGGAUGCCUCCAAA [C8U G29U G32C G35C A36U C50A A52U]	< 1e-05
AUAAAAGCACCAGAACUACAGAAAUGUAGAUGACGAGGAGGAGGUUUAUCGAAUUUUCGGCGGAUGCCUACAAA [G9A U30A C70A]	< 1e-05
AUAAAAGCGCCAGAACUACAGAAAUGUAGUUGACGAGGAGGAGGUUUAUCCUAUUUCCUGCGGAUGCCUCCAAA [G51C A52U U57C G59U]	< 1e-05
AUAAAAGCGCCAGAACUACAGAAAUGUAGUUGACGAGGAGGAGUUUUAUCGAAUUUGCGGCGGAUACCUGCAAA [G44U U57G G66A C70G]	< 1e-05
AUAAAAGCGGCAGAACUACAGAAAUGUAUUUGACGAGGAGGAGGUUUAUCGAAUCUUCGGCGGAUGCCUCCAAA [C10G G29U U55C]	< 1e-05
AUAAAAGGGGCAGAACUACAGAAAUGUAGUUGACGAGGAUGAGGUUUAUCGCAUUUUCGGCGGAUGCCUCCAAA [C8G C10G G40U A52C]	< 1e-05
AUAAAAGUGCCAGAAAUACAGAAAUGUAGUUGACGAGGCGGCGGUUUAUCGAAUUUUCCGCGGAUGACUUCAAA [C8U C16A A39C A42C G59C C67A C70U]	< 1e-05
AUAAAAGCGCUAGAACUACAGAAAUGUAGUUGACGAGGAGGAGGUUUAUAGAAUUUUCGGCGGAUACCUCCAAA [C11U C50A G66A]	< 1e-05
AUAAAAGCGCCCGAACUACAGAAAUGUAGUUGACGAGGAGGAGGUUUAUCGAAUUUGCGGCGGAUGCCUCCAAA [A12C U57G]	5.46e-05 ± 1.2e-05
AUAAAAGCCCCAGAACUACAGAAAUGUAGUAGACGAGGAGGAGGUUUAUCGAAUUUUCGGCGGAUGCCUCCAAA [G9C U31A]	< 1e-05
AUAAAAGCGCGAGAUCUACAGAAAUGUAGUUGACGAGGAGGAGGUUUAUAUAAUUUUCGGCGGAUGCCUACAAA [C11G A15U C50A G51U C70A]	4.33e-05 ± 1.2e-05
